This assay addresses T1, calcium-signal modulating cyclophilin ligand (CAML), human, full length (human, UniProt P49069 1-296).
T1 construct: mature; In the co-immunoprecipitation it was expressed from pBJ5 in 293T cells
T1 sequence (looked up): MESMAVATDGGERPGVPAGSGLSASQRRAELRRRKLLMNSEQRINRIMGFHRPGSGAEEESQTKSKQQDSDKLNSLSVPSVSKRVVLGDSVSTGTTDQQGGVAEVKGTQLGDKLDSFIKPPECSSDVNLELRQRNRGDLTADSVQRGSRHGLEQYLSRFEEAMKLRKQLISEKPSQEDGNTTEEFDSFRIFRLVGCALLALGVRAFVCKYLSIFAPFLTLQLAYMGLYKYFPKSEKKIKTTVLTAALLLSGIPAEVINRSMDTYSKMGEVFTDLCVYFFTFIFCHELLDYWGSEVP
Description: yeast two-hybrid screen of a human B-lymphocyte cDNA library with full-length CAML as bait.

B1: Transmembrane Activator and CAML-Interactor protein TACI-1 (human, full length, 293 amino acids) (receptor)
chain: MSGLGRSRRGGRSRVDQEERFPQGLWTGVAMRSCPEEQYWDPLLGTCMSCKTICNHQSQRTCAAFCRSLSCRKEQGKFYDHLLRDCISCASICGQHPKQCAYFCENKLRSPVNLPPELRRQRSGEVENNSDNSGRYQGLEHRGSEASPALPGLKLSADQVALVYSTLGLCLCAVLCCFLVAVACFLKKRGDPCSCQPRSRPRQSPAKSSQDHAMEAGSPVSTSPEPVETCSFCFPECRAPTQESAVTPGTPDPTCAGRWGCHTRTTVLQPCPHIPDSGLGIVCVPAQEGGPGA
notes: Untagged full-length protein expressed from pBJ5 on TAg Jurkat T cells for flow cytometry and reporter assays; In the yeast two-hybrid tests it was fused to a GAL4 domain (pACT or pAS1); also called TACI protein; TCB
In the case of B1, the binding result is recorded as “binds”.

Source of the values: patent publication US20030082173A1 (ST JUDE CHILDREN S RESEARCH HOSPITAL, published 2003).
